Reference: paper PMC6200642

Target: recombinant UspA2 (ubiquitous surface protein A2), cloned from M. catarrhalis strain RH4 (Moraxella catarrhalis strain RH4)
Experiment: ELISA

Molecule	Kd [nM]
decorin (from UniProt P07585 31-359) (natural protein)	293
biglycan (natural protein, biotinylated (EZ-Link Sulfo-NHS-LC-Biotinylation kit); glycosylated) DEEASGADTSGVLDPDSVTPTYSAMCPFGCHCHLRVVQCSDLGLKSVPKEISPDTTLLDLQNNDISELRKDDFKGLQHLYALVLVNNKISKIHEKAFSPLRKLQKLYISKNHLVEIPPNLPSSLVELRIHDNRIRKVPKGVFSGLRNMNCIEMGGNPLENSGFEPGAFDGLKLNYLRISEAKLTGIPKDLPETLNELHLDHNKIQAIELEDLLRYSKLYRLGLGHNQIRMIENGSLSFLPTLRELHLDNNKLARVPSGLPDLKLLQVVYLHSNNITKVGVNDFCPMGFGVKRAYYNGISLFNNPVPYWEVQPATFRCVTDRLAIQFGNYKK	89
fibromodulin (natural protein, biotinylated (EZ-Link Sulfo-NHS-LC-Biotinylation kit); glycosylated) QYEDDPHWWFHYLRSQQSTYYDPYDPYPYETYEPYPYGVDEGPAYTYGSPSPPDPRDCPQECDCPPNFPTAMYCDNRNLKYLPFVPSRMKYVYFQNNQITSIQEGVFDNATGLLWIALHGNQITSDKVGRKVFSKLRHLERLYLDHNNLTRMPGPLPRSLRELHLDHNQISRVPNNALEGLENLTALYLQHNEIQEVGSSMRGLRSLILLDLSYNHLRKVPDGLPSALEQLYMEHNNVYTVPDSYFRGAPKLLYVRLSHNSLTNNGLASNTFNSSSLLELDLSYNQLQKIPPVNTNLENLYLQGNRINEFSISSFCTVVDVVNFSKLQVLRLDGNEIKRSAMPADAPLCLRLASLIEI	202
osteoadherin (natural protein, biotinylated (EZ-Link Sulfo-NHS-LC-Biotinylation kit); glycosylated) QYETYQWDEDYDQEPDDDYQTGFPFRQNVDYGVPFHQYTLGCVSECFCPTNFPSSMYCDNRKLKTIPNIPMHIQQLYLQFNEIEAVTANSFINATHLKEINLSHNKIKSQKIDYGVFAKLPNLLQLHLEHNNLEEFPFPLPKSLERLLLGYNEISKLQTNAMDGLVNLTMLDLCYNYLHDSLLKDKIFAKMEKLMQLNLCSNRLESMPPGLPSSLMYLSLENNSISSIPEKYFDKLPKLHTLRMSHNKLQDIPYNIFNLPNIVELSVGHNKLKQAFYIPRNLEHLYLQNNEIEKMNLTVMCPSIDPLHYHHLTYIRVDQNKLKEPISSYIFFCFPHIHTIYYGEQRSTNGQTIQLKTQVFRRFPDDDDESEDHDDPDNAHESPEQEGAEGHFDLHYYENQE	231
